Experimental data reported in US20200392227A1 (LYVGEN BIOPHARMA, published 2020).
Like-named read-outs stand apart in the source and are kept apart here.

What was measured:
Experiment in all cases: BLI
[1] = biological target: T1, human FcRIIIA-F158 protein (MednaBio, E1036) (human, UniProt P08637 17-208)
T1 construct: Bought; also called FcγRIIIA(F)

[2] = biological target: T2, human FcRIIIB protein (MednaBio, E1037) (human, UniProt O75015 17-200)
T2 construct: Bought; also called FcγRIIIB; FcgRIIIB
T2 sequence (O75015 17-200 limits assumed): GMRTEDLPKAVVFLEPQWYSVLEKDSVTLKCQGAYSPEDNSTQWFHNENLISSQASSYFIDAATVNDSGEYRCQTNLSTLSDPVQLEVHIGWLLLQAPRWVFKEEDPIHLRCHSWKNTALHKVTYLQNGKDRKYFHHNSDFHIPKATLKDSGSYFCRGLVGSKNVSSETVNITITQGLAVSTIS

[3] = biological target: T1, human FcRIIIA-F158 protein (MednaBio, …); remark: listed apart in the source
In short: (§1)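 Binding was measured by biolayer interferometry on an Octet Red96 System. Commercial human Fc receptor proteins were loaded at 20 μg/mL onto anti-penta-HIS biosensors, which were then dipped into an 8-point 1:3 dilution series of test IgG starting at 300 nM in PBS with 0.1% BSA and 0.02% Tween-20, at pH 7.2 for Fcγ receptors and pH 6 for FcRn. Kd, kon and koff were obtained by global fitting, with data fitted to a 1:1 binding model.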

[4] = biological target: T3, human FcRI protein (MednaBio, E1031) (human, UniProt P12314 16-288, limits assumed)
T3 construct: Bought; loaded on anti-penta-HIS biosensors; also called FcγRI
T3 sequence (P12314 16-288 limits assumed): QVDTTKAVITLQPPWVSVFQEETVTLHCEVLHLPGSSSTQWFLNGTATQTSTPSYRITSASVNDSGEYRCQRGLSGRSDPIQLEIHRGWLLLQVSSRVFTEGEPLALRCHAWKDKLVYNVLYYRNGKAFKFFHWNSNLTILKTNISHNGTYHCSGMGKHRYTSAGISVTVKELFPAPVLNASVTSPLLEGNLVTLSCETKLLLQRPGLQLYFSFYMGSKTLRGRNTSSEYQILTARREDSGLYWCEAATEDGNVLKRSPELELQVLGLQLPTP
In short: as §1

[5] = biological target: T4, human FcRIIA protein (MednaBio, E1033) (human, UniProt P12318 34-218, limits assumed)
T4 construct: Bought; also called FcγRIIA
T4 sequence (looked up): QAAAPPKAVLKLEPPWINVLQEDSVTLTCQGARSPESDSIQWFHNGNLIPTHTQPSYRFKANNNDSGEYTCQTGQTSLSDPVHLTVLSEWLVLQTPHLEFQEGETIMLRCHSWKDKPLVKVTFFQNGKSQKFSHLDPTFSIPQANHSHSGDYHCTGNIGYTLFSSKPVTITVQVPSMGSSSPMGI
In short: as §1

[6] = biological target: T5, human FcRIIB/C protein (MednaBio, E1034) (human, UniProt P31994 43-217, limits assumed)
T5 construct: Bought as FcRIIB/C; also called FcγRIIB; CD32B
T5 sequence (looked up): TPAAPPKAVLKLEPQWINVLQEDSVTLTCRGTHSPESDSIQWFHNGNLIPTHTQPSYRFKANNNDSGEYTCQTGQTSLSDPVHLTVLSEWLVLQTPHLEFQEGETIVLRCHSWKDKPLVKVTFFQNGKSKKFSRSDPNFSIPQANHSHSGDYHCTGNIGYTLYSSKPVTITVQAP
In short: as §1

[7] = biological target: T1, human FcRIIIA-F158 protein (MednaBio, …); remark: listed apart in the source
In short: as §1

[8] = biological target: T6, human FcRIIIA-V158 protein (MednaBio, E1035) (human, UniProt P08637 17-208)
T6 construct: Bought; also called FcγRIIIA(V); FcgRIIIA(V)
T6 sequence (P08637 17-208 F176V): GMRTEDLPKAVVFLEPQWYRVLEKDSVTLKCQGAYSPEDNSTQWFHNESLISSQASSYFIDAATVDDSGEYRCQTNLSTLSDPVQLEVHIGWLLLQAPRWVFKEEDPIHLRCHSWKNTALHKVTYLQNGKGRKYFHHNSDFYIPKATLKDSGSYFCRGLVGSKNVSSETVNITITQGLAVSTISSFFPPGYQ
In short: as §1

[9] = biological target: T2, human FcRIIIB protein (MednaBio, E1037); remark: listed apart in the source
In short: as §1

[10] = biological target: T7, human FcRn protein (MednaBio, E1032) (human, UniProt P55899 24-297; P61769 21-119)
T7 construct: Bought; assays at pH 6
T7 sequence (P55899 24-297 limits assumed, form in doubt, chain 1 of 2): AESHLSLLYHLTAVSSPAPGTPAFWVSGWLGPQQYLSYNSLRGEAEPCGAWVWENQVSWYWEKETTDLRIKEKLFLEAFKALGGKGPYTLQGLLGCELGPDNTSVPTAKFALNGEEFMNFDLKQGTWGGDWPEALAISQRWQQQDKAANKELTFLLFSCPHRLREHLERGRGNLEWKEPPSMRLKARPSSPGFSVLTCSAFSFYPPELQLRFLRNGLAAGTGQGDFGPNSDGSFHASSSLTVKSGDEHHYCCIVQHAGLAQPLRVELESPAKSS
T7 sequence (P61769 21-119 limits assumed, form in doubt, chain 2 of 2): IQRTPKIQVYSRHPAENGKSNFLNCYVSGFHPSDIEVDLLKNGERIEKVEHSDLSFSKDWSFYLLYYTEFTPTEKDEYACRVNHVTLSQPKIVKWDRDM
In short: as §1

[11] = biological target: T3, human FcRI protein (MednaBio, E1031); remark: listed apart in the source
In short: as §1

[12] = biological target: T4, human FcRIIA protein (MednaBio, E1033); remark: listed apart in the source
In short: as §1

[13] = biological target: T5, human FcRIIB/C protein (MednaBio, E1034); remark: listed apart in the source
In short: as §1

[14] = biological target: T6, human FcRIIIA-V158 protein (MednaBio, …); remark: listed apart in the source
In short: as §1

[15] = biological target: T7, human FcRn protein (MednaBio, E1032); remark: listed apart in the source
In short: as §1

T1 sequence (P08637 17-208 limits assumed): as the sequence (P08637 17-208 F176V) above, with V160F counted along it

B1: wild-type human IgG1 control (antibody)
heavy: not shown
light: SYELTQPPSVSVSPGQTASITCSGDNIGDQYAHWYQQKPGQSPVLVIYQDKNRPSGIPERFSGSNSGNTATLTISGTQAMDEADYYCATYTGFGSLAVFGGGTKLTVLGQPKAAPSVTLFPPSSEELQANKATLVCLISDFYPGAVTVAWKADSSPVKAGVETTTPSKQSNNKYAASSYLSLTPEQWKSHRSYSCQVTHEGSTVEKTVAPTECS
notes: Control IgG
Kd [1]: 120 nM | koff [1]: 0.02 s⁻¹ | kon [1]: 170000 M⁻¹ s⁻¹ | Kd [2]: 130 nM | koff [2]: 0.027 s⁻¹ | kon [2]: 210000 M⁻¹ s⁻¹ | Kd [3]: 120 nM | koff [3]: 0.02 s⁻¹ | kon [3]: 170000 M⁻¹ s⁻¹ | Kd [4]: 5.6 nM | koff [4]: 0.0012 s⁻¹ | kon [4]: 220000 M⁻¹ s⁻¹ | Kd [5]: 56 nM | koff [5]: 0.032 s⁻¹ | kon [5]: 570000 M⁻¹ s⁻¹ | Kd [6]: 130 nM | koff [6]: 0.016 s⁻¹ | kon [6]: 120000 M⁻¹ s⁻¹ | Kd [7]: 120 nM | koff [7]: 0.02 s⁻¹ | kon [7]: 170000 M⁻¹ s⁻¹ | Kd [8]: 60 nM | koff [8]: 0.027 s⁻¹ | kon [8]: 450000 M⁻¹ s⁻¹ | Kd [9]: 130 nM | koff [9]: 0.027 s⁻¹ | kon [9]: 210000 M⁻¹ s⁻¹ | Kd [10]: 16 nM | koff [10]: 0.008 s⁻¹ | kon [10]: 480000 M⁻¹ s⁻¹

B2: wild-type human IgG4 control (antibody)
heavy: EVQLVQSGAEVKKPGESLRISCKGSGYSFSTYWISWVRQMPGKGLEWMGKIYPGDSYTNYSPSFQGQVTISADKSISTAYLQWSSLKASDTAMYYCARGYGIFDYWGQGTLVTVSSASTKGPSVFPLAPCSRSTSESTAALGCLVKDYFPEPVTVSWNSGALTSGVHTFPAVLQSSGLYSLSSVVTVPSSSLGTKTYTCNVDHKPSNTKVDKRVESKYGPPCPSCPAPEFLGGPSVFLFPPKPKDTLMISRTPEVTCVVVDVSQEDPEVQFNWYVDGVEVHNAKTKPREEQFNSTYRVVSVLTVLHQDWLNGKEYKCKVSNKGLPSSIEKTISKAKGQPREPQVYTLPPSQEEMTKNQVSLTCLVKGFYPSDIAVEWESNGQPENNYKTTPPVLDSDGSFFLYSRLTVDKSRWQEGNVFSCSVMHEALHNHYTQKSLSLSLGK
light: B1 light
notes: Control IgG
Kd [11]: 4.8 nM | koff [11]: 0.0017 s⁻¹ | kon [11]: 360000 M⁻¹ s⁻¹ | Kd [12]: 400 nM | koff [12]: 0.055 s⁻¹ | kon [12]: 140000 M⁻¹ s⁻¹ | Kd [13]: 400 nM | koff [13]: 0.05 s⁻¹ | kon [13]: 140000 M⁻¹ s⁻¹ | Kd [14]: 550 nM | koff [14]: 0.092 s⁻¹ | kon [14]: 170000 M⁻¹ s⁻¹ | Kd [15]: 18 nM | koff [15]: 0.012 s⁻¹ | kon [15]: 640000 M⁻¹ s⁻¹
